Assay [1] deals with T1, Mouse CTGF protein-His tag (mouse, UniProt P29268 26-348).
T1 construct: C-terminal His tag; also called mouse CTGF-his protein; mouse CTGF fusion protein
T1 sequence: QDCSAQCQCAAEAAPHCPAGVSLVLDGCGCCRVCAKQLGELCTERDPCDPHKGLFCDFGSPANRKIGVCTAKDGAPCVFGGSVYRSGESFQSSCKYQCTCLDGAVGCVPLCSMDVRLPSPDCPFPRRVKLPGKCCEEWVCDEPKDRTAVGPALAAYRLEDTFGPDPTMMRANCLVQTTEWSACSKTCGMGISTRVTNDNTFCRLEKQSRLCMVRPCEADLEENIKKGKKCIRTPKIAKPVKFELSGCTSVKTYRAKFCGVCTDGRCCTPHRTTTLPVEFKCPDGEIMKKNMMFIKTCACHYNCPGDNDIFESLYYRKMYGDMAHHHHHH
Put plainly: ELISA, plate coated with mouse CTGF-his. As for the experimental part: The binding activity of anti-mouse CTGF antibody to mouse CTGF protein was tested by ELISA assay. A 96-well microtiter plate was directly coated with the mouse CTGF fusion protein. The signal strength upon the addition of the antibody was used to determine the binding activity of the antibody to mouse CTGF. The specific experimental procedures were as follows:
The mouse CTGF-his protein was diluted with PBS, pH 7.4 (Shanghai Yuanpei, Cat No. B320) buffer to a concentration of 0.5 μg/ml, added into the 96-well microtiter plate (Corning, Cat No. CLS3590-100EA) at 50 μl/well, and incubated in an incubator at 37° C. for 2 hours. The liquid was removed, 250 μl/well blocking solution (5% skim milk (BD skim milk, Cat No. 232100) diluted in PBS) was added, and incubated in an incubator at 37° C. for 3 hours or at 4° C. overnight (16-18 hours) for blocking. After the blocking was finished, the blocking solution was removed, the plate was washed for 3 times with PBST buffer (PBS containing 0.1% Tween-20, pH 7.4), 50 μl/well of various concentrations of each of the test antibodies (antibodies purified from hybridoma or humanized antibodies) diluted with sample dilution solution were added, and incubated in an incubator at 37° C. for 1 hours. After the incubation was finished, the plate was washed for 3 times with PBST, 50 μl/well of HRP-labeled goat anti-mouse secondary antibody (Jackson Immuno Research, Cat No. 115-035-003) or goat anti-human secondary antibody (Jackson Immuno Research, Cat No. 109-035-003) diluted with sample dilution solution was added, and incubated at 37° C. for 1 hour. The plate was washed for 5 times with PBST, 50 μl/well of TMB chromogenic substrate (KPL, Cat No. 52-00-03) was added, incubated at room temperature for 5-10min, and 50 μl/well of 1 M H₂SO₄ was added to stop the reaction. The absorbance value was read by a microplate reader (Molecular Devices, VERSA max) at a wavelength of 450 nm, and the data was analyzed with GraphPad Prism 5. The binding of CTGF antibody to mouse CTGF protein was calculated as EC50 value.
Background: ELISA stands for enzyme-linked immunosorbent assay.

The target in assay [2] is T2, mouse CTGF (antigen of the Biacore assay) (mouse, UniProt P29268 26-348).
T2 construct: also called mouse CTGF protein
T2 sequence (looked up): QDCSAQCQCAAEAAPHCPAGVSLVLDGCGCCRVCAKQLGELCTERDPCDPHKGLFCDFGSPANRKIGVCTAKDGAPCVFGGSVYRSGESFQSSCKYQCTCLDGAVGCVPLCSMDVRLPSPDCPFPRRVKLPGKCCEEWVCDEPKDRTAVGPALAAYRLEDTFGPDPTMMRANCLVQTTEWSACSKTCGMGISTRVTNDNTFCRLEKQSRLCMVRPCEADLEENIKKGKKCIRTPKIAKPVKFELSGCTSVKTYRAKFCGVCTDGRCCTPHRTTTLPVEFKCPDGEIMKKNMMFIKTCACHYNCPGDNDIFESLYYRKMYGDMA
Put plainly: Biacore, antibody captured on Protein A, mouse CTGF in flow, 1:1 fit. The text has this:
A certain amount of each of the test antibodies was affinity-captured with Protein A biosensor chip (Cat. # 29127556, GE), and then a certain concentration of human or mouse CTGF was allowed to flow through the surface of the chip. The reaction signals were detected in real time with Biacore instrument to generate a binding and dissociation curve. After the dissociation was completed in each cycle, the biosensor chip was washed and regenerated with Glycine-HCl regeneration solution pH 1.5 (Cat. # BR-1003-54, GE). The running buffer for the assay was 1×HBS-EP buffer solution (Cat. # BR-1001-88, GE).
(In general: Surface plasmon resonance follows binding to a sensor surface in real time, without labels.)

B1: positive control CTGF antibody mAb1 (antibody, V domains shown)
VH: EGQLVQSGGGLVHPGGSLRLSCAGSGFTFSSYGMHWVRQAPGKGLEWVSGIGTGGGTYSTDSVKGRFTISRDNAKNSLYLQMNSLRAEDMAVYYCARGDYYGSGSFFDCWGQGTLVTVSS
VL: DIQMTQSPSSLSASVGDRVTITCRASQGISSWLAWYQQKPEKAPKSLIYAASSLQSGVPSRFSGSGSGTDFTLTISSLQPEDFATYYCQQYNSYPPTFGQGTKLEIKR
notes: Positive control, from CN1829740B; also called pamrevlumab; FG-3019
Usually EC50 stands for the concentration that produces a half-maximal response. Molecule B1 yielded an EC50 in assay [1] of 0.077 nM.

B2: Hu147-22wk (antibody, human IgG1, kappa, V domains shown)
VH: EVQLVESGGGLVQPGGSLRLSCAASGFTFNTYAMNWVRQAPGKGLEWVARIRTKSNNYATYYADSVKDRFTISRDDSKNSLYLQMNSLKTEDTAVYYCVETGFAYWDQGTLVTVSS
VL: EIVLTQSPATLSLSPGERATLSCSASSSVSYMHWFQQKPGQSPKLLIYSTSNLASGIPARFSGSGSGTDYTLTISSLEPEDFAVYYCQQRSSYPLTFGQGTKLEIKR
In assay [1], B2 showed a 50% effective concentration (EC50) of 0.336 nM. Against the preceding molecule, the EC50 is about 4.4-fold higher.

B3: Hu147-14wk (antibody, human IgG1, kappa, V domains shown)
VH: EVQLVESGGGLVQPGGSLRLSCAASGFTFSTYAMNWVRQAPGKGLEWVGRIRTKSNNYATYYADSVKDRFTISRDDSKNSLYLQMNSLKTEDTAVYYCVETGFAYWDQGTLVTVSS
VL: DIQMTQSPSSLSASVGDRVTITCSASSSVSYMHWFQQKPGKSPKLLIYSTSNLASGVPSRFSGSGSGTDYTLTISSLQPEDFATYYCQQRSSYPLTFGQGTKLEIKR
Regarding B3, the response in assay [1] was half-maximal at 0.431 nM (EC50).

B4: Hu147-34wk (antibody, human IgG1, kappa, V domains shown)
VH: EVQLVESGGGLVQPGGSLRLSCAASGFSFNTYAMNWVRQAPGKGLEWVARIRTKSNNYATYYADSVKDRFTISRDDSESSLYLQMNSLKTEDTAVYYCVETGFAYWDQGTLVTVSS
VL: DIQMTQSPSSLSASVGDRVTITCSASSSVSYMHWFQQKPGKSPKLLIYSTSNLASGVPSRFSGSGSGTDYTLTISSLQPEDFATYYCQQRSSYPLTFGQGTKLEIKR
Consider B4, for which the response in assay [1] was half-maximal at 0.664 nM (EC50).

B5: Hu147-21wk (antibody, human IgG1, kappa, V domains shown)
VH: EVQLVESGGGLVQPGGSLRLSCAASGFTFNTYAMNWVRQAPGKGLEWVARIRTKSNNYATYYADSVKDRFTISRDDSKNSLYLQMNSLKTEDTAVYYCVETGFAYWDQGTLVTVSS
VL: EIVLTQSPATLSLSPGERATLSCSASSSVSYMHWFQQKPGQSPRLLIYSTSNLASGIPARFSGSGSGTDYTLTISSLEPEDFAVYYCQQRSSYPLTFGQGTKLEIKR
B5 had an EC50 in assay [1] of 0.247 nM.

B6: Hu147-13wk (antibody, human IgG1, kappa, V domains shown)
VH: EVQLVESGGGLVQPGGSLRLSCAASGFTFSTYAMNWVRQAPGKGLEWVGRIRTKSNNYATYYADSVKDRFTISRDDSKNSLYLQMNSLKTEDTAVYYCVETGFAYWDQGTLVTVSS
VL: EIVLTQSPATLSLSPGERATLSCSASSSVSYMHWFQQKPGQSPKLWIYSTSNLASGVPARFSGSGSGTDYTLTISSLEPEDFAVYYCQQRSSYPLTFGQGTKLEIKR
By Kd is commonly meant the equilibrium constant for the complex coming apart. Usually koff stands for a measure of how fast the partners let go of each other. The low end stands for slow dissociation, the high end for fast dissociation. In general, kon refers to a measure of how fast the partners come together. A low value points to slow association. For the molecule B6, the EC50 in assay [1] was 0.127 nM. In assay [2], this molecule came in with a Kd of 2.55 nM, a dissociation rate constant (koff) of 0.146 s⁻¹ and a kon of 5.73e+07 M⁻¹ s⁻¹.

B7: Hu147-33wk (antibody, human IgG1, kappa, V domains shown)
VH: EVQLVESGGGLVQPGGSLRLSCAASGFSFNTYAMNWVRQAPGKGLEWVARIRTKSNNYATYYADSVKDRFTISRDDSESSLYLQMNSLKTEDTAVYYCVETGFAYWDQGTLVTVSS
VL: EIVLTQSPATLSLSPGERATLSCSASSSVSYMHWFQQKPGQSPKLWIYSTSNLASGVPARFSGSGSGTDYTLTISSLEPEDFAVYYCQQRSSYPLTFGQGTKLEIKR
Molecule B7 gave an EC50 in assay [1] of 0.258 nM. In assay [2], the Kd was 1.93 nM, the koff turned out to be 0.174 s⁻¹ and the kon came to 9.01e+07 M⁻¹ s⁻¹.

B8: Hu147-31wk (antibody, human IgG1, kappa, V domains shown)
VH: EVQLVESGGGLVQPGGSLRLSCAASGFSFNTYAMNWVRQAPGKGLEWVARIRTKSNNYATYYADSVKDRFTISRDDSESSLYLQMNSLKTEDTAVYYCVETGFAYWDQGTLVTVSS
VL: EIVLTQSPATLSLSPGERATLSCSASSSVSYMHWFQQKPGQSPRLLIYSTSNLASGIPARFSGSGSGTDYTLTISSLEPEDFAVYYCQQRSSYPLTFGQGTKLEIKR
In the case of B8, it took 0.32 nM to reach a half-maximal effect in assay [1] (EC50). In assay [2], this molecule registered a Kd of 2.79 nM, an off-rate constant (koff) of 0.107 s⁻¹ and a kon of 3.83e+07 M⁻¹ s⁻¹.

B9: Hu147-15wk (antibody, human IgG1, kappa, V domains shown)
VH: EVQLVESGGGLVQPGGSLRLSCAASGFTFSTYAMNWVRQAPGKGLEWVGRIRTKSNNYATYYADSVKDRFTISRDDSKNSLYLQMNSLKTEDTAVYYCVETGFAYWDQGTLVTVSS
VL: DIQLTQSPSSLSASVGDRVTITCSASSSVSYMHWFQQKPGKSPKLWIYSTSNLASGVPSRFSGSGSGTDYTLTISSLQPEDFATYYCQQRSSYPLTFGQGTKLEIKR
Turning to B9, a half-maximal effect in assay [1] (EC50) was put at 0.159 nM.

B10: Hu147-32wk (antibody, human IgG1, kappa, V domains shown)
VH: EVQLVESGGGLVQPGGSLRLSCAASGFSFNTYAMNWVRQAPGKGLEWVARIRTKSNNYATYYADSVKDRFTISRDDSESSLYLQMNSLKTEDTAVYYCVETGFAYWDQGTLVTVSS
VL: EIVLTQSPATLSLSPGERATLSCSASSSVSYMHWFQQKPGQSPKLLIYSTSNLASGIPARFSGSGSGTDYTLTISSLEPEDFAVYYCQQRSSYPLTFGQGTKLEIKR
Consider B10, for which the EC50 in assay [1] stood at 0.349 nM. In assay [2], this molecule returned a Kd of 2.49 nM, a koff of 0.343 s⁻¹ and an on-rate constant (kon) of 1.37e+08 M⁻¹ s⁻¹.

B11: Hu147-11wk (antibody, human IgG1, kappa, V domains shown)
VH: EVQLVESGGGLVQPGGSLRLSCAASGFTFSTYAMNWVRQAPGKGLEWVGRIRTKSNNYATYYADSVKDRFTISRDDSKNSLYLQMNSLKTEDTAVYYCVETGFAYWDQGTLVTVSS
VL: EIVLTQSPATLSLSPGERATLSCSASSSVSYMHWFQQKPGQSPRLLIYSTSNLASGIPARFSGSGSGTDYTLTISSLEPEDFAVYYCQQRSSYPLTFGQGTKLEIKR
The molecule B11 displayed a concentration giving a half-maximal response (EC50) in assay [1] of 0.228 nM. In assay [2], the Kd was determined as 3.11 nM, the koff turned out to be 0.374 s⁻¹ and the on-rate constant (kon) is 1.2e+08 M⁻¹ s⁻¹.

B12: Hu147-23wk (antibody, human IgG1, kappa, V domains shown)
VH: EVQLVESGGGLVQPGGSLRLSCAASGFTFNTYAMNWVRQAPGKGLEWVARIRTKSNNYATYYADSVKDRFTISRDDSKNSLYLQMNSLKTEDTAVYYCVETGFAYWDQGTLVTVSS
VL: EIVLTQSPATLSLSPGERATLSCSASSSVSYMHWFQQKPGQSPKLWIYSTSNLASGVPARFSGSGSGTDYTLTISSLEPEDFAVYYCQQRSSYPLTFGQGTKLEIKR
In assay [1], B12 gave an EC50 of 0.2 nM. In assay [2], the dissociation constant Kd was 2.12 nM, the off-rate (koff) was 0.173 s⁻¹ and the on-rate (kon) was 8.18e+07 M⁻¹ s⁻¹.

B13: Hu147-24wk (antibody, human IgG1, kappa, V domains shown)
VH: EVQLVESGGGLVQPGGSLRLSCAASGFTFNTYAMNWVRQAPGKGLEWVARIRTKSNNYATYYADSVKDRFTISRDDSKNSLYLQMNSLKTEDTAVYYCVETGFAYWDQGTLVTVSS
VL: DIQMTQSPSSLSASVGDRVTITCSASSSVSYMHWFQQKPGKSPKLLIYSTSNLASGVPSRFSGSGSGTDYTLTISSLQPEDFATYYCQQRSSYPLTFGQGTKLEIKR
The molecule B13 had an EC50 in assay [1] of 0.263 nM.

(Values after US20220324953A1 (JIANGSU HENGRUI MEDICINE, published 2022).)
